Data reported in patent US20240018243A1 (NOVOMAB BIOPHARMACEUTICALS, published 2024).
Each block holds one molecule with its values, some of them ahead of it.

What was measured:
[1] = target: Human CTLA4-FC recombinant protein (human); assay: competition ELISA, human CTLA4-FC coated, blocked ligand CD80-FC-HIS, anti-HIS-HRP, OD450
[2] = target: monkey CTLA4 on expressing cells (monkey); assay: cell ELISA on monkey CTLA4 expressing cells, goat anti-human IgG-HRP, OD450
[3] = target: T1, Human CTLA4-His recombinant protein (human, UniProt P16410 36-162); assay: OCTET (BLI), antibody on protein A biosensor, CTLA4-HIS in solution
T1 construct: also called CTLA4-HIS (Sino Biological); CTLA4 recombinant protein; not shown: His tag
T1 sequence (looked up): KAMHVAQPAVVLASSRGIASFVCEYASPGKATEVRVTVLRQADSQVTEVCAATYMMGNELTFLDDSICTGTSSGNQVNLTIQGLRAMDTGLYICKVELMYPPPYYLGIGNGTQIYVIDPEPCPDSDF
Experimental: The affinity constant KD of the antibody to CTLA4 was determined using OCTET. Firstly, the protein A biosensor was used to immobilize the antibody to be detected, and the biosensors containing different antibodies were placed in the CTLA4-HIS diluent with the same concentration (Sino Biological) for binding for 4 min. The biosensor was then placed in the PBS for 400 s. The affinity constant KD of the antibody was analyzed by OCTET analysis software, KD is kd/ka.

IC50 [1]: 43.6 nM
Molecule: Isotype (antibody)

EC50 [2]: 799 µg/mL
Molecule: Isotype control (antibody)

Kd [3]: 13.9 nM | koff [3]: 0.000481 s⁻¹ | kon [3]: 34500 M⁻¹ s⁻¹
B1: HCA14-KH (Fc fusion)
chain 1: ESKYGPPCPPCPAPEFLGGPSVFLFPPKPKDTLMISRTPEVTCVVVDVSQEDPEVQFNWYVDGVEVHNAKTKPREEQFNSTYRVVSVLTVLHQDWLNGKEYKCKVSNKGLPSSIEKTISKAKGQPREPQVYTLPPCQEEMTKNQVSLWCLVKGFYPSDIAVEWESNGQPENNYKTTPPVLDSDGSFFLYSRLTVDKSRWQEGNVFSCSVMHEALHNHYTQKSLSLSLGK
chain 2: EVQLLESGGGLVQPGGSLRLSCAASGSIFSINHMAWYRQAPGKQRELVAGVNSRGTTNYVDSVKGRFTISRDNSKNTLYLQMNSLRAEDTAVYYCRALGGAVAAWGQGTLVTVSSGGGGSGGGGSGGGGSESKYGPPCPPCPAPEFLGGPSVFLFPPKPKDTLMISRTPEVTCVVVDVSQEDPEVQFNWYVDGVEVHNAKTKPREEQFNSTYRVVSVLTVLHQDWLNGKEYKCKVSNKGLPSSIEKTISKAKGQPREPQVCTLPPSQEEMTKNQVSLSCAVKGFYPSDIAVEWESNGQPENNYKTTPPVLDSDGSFFLVSRLTVDKSRWQEGNVFSCSVMHEALHNHYTQKSLSLSLGK
notes: also called HCA14 -KB; monovalent antibody
